We go through 4 molecules from patent US20050043236A1 (published 2005).

The target of assay [1] is T1, human VEGF165 (human, UniProt P15692-4 27-191).
T1 construct: also called hVEGF165
As to the kind of experiment: kinetic dissociation from hVEGF165, as described in WO/0075319.

In assay [2] the target is T1, human VEGF165. The assay can be described thus: half-life of dissociation of the trap-hVEGF165 complex, as described in WO/0075319.
In assay [3] the target is T1, human VEGF165. As to the kind of experiment: affinity determination for human VEGF-165 (method not named in Example 7).
For assay [4], the target named is T1, human VEGF165. As to the kind of experiment: affinity determination for human VEGF-165 (method not named in Example 7); second row for SEQ ID NO: 26.
Assay [5] concerns the target T1, human VEGF165.

Like-named read-outs stand apart in the source and are kept apart here.

T1 sequence (P15692 other isoform, or with tags, fused parts or gaps limits assumed): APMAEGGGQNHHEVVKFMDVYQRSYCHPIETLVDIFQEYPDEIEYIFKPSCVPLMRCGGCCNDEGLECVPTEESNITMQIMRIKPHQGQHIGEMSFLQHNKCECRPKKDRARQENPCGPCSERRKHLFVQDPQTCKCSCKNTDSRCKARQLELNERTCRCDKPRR

B1: cleaved VEGF mini-trap (receptor)
chain: SDTGRPFVEMYSEIPEIIHMTEGRELVIPCRVTSPNITVTLKKFPLDTLIPDGKRIIWDSRKGFIISNATYKEIGLLTCEATVNGHLYKTNYLTHRQTNTIIDVVLSPSHGIELSVGEKLVLNCTARTELNVGIDFNWEYPSSKHQHKKLVNRDLKTQSGSEMKKFLSTLTIDGVTRSDQGLYTCAASSGLMTKKNSTFVRVHEKDKTHTCPPCLVPRGS
notes: Product of thrombin digestion of the uncleaved VEGF trap; also called thrombin-cleaved dimeric VEGF mini-trap; truncated trap
B1 returned an off-rate (koff) in the assay with human VEGF165 [1] of 5.46e-05 s⁻¹. For the same molecule, the “T1/2” value with human VEGF165 [2] was determined as 3.53 h.

B2: VEGF mini-trap of SEQ ID NO:26 (receptor)
chain: SDTGRPFVEMYSEIPEIIHMTEGRELVIPCRVTSPNITVTLKKFPLDTLIPDGKRIIWDSRKGFIISNATYKEIGLLTCEATVNGHLYKTNYLTHRQTNTIIDVVLSPSHGIELSVGEKLVLNCTARTELNVGIDFNWEYPSSKHQHKKLVNRDLKTQSGSEMKKFLSTLTIDGVTRSDQGLYTCAASSGLMTKKNSTFVRVHEKDKTHTCPPC
notes: Secreted from CHO K1 cells; Covalent dimer of about 64 kDa
Regarding B2, in the assay with human VEGF165 [3], the equilibrium dissociation constant (Kd) was determined as 0.328 pM, the koff is 6.56e-06 s⁻¹ and the kon was found to be 2e+07 M⁻¹ s⁻¹. In the assay with human VEGF165 [4], the Kd amounted to 0.221 pM, the koff stood at 5.77e-06 s⁻¹ and the association rate constant (kon) was found to be 2.61e+07 M⁻¹ s⁻¹.

B3: recombinant monomeric R1R2-myc myc his (receptor)
chain: SDTGRPFVEMYSEIPEIIHMTEGRELVIPCRVTSPNITVTLKKFPLDTLIPDGKRIIWDSRKGFIISNATYKEIGLLTCEATVNGHLYKTNYLTHRQTNTIIDVVLSPSHGIELSVGEKLVLNCTARTELNVGIDFNWEYPSSKHQHKKLVNRDLKTQSGSEMKKFLSTLTIDGVTRSDQGLYTCAASSGLMTKKNSTFVRVHEK
modifications: C-terminal myc-myc-his tag is not in the letters.
notes: Monomer; The construct is named only, not described; also called R1R2-myc myc his monomer; not shown: myc-myc-his tag and any linker to it
As to B3, the Kd with human VEGF165 [5] was around 1000 pM. This molecule returned a koff in the assay with human VEGF165 [1] of 0.00674 s⁻¹. Moreover, the “T1/2” value in the assay with human VEGF165 [2] came to 0.028 h.

B4: uncleaved VEGF trap containing a thrombin cleavage site (Fc fusion)
chain: SDTGRPFVEMYSEIPEIIHMTEGRELVIPCRVTSPNITVTLKKFPLDTLIPDGKRIIWDSRKGFIISNATYKEIGLLTCEATVNGHLYKTNYLTHRQTNTIIDVVLSPSHGIELSVGEKLVLNCTARTELNVGIDFNWEYPSSKHQHKKLVNRDLKTQSGSEMKKFLSTLTIDGVTRSDQGLYTCAASSGLMTKKNSTFVRVHEKDKTHTCPPCLVPRGSPAPELLGGPSVFLFPPKPKDTLMISRTPEVTCVVVDVSHEDPEVKFNWYVDGVEVHNAKTKPREEQYNSTYRVVSVLTVLHQDWLNGKEYKCKVSNKALPAPIEKTISKAKGQPREPQVYTLPPSRDELTKNQVSLTCLVKGFYPSDIAVEWESNGQPENNYKTTPPVLDSDGSFFLYSKLTVDKSRWQQGNVFSCSVMHEALHNHYTQKSLSLSPGK
Regarding B4, in the assay with human VEGF165 [1], the koff is 4.93e-05 s⁻¹. Besides, the “T1/2” value with human VEGF165 [2] amounted to 3.9 h.
